Measured values taken from US20220074947A1 (UCB, published 2022).

Key:
[1] = target: T1, human TNFα in complex with compound (1) (human, UniProt P01375 77-233); experiment: SPR (BIAcore), against apo human TNFα
T1 construct: also called human TNFα +compound (1); TNFα-compound (1) complex

[2] = target: T2, human TNFα in complex with compound (2) (human, UniProt P01375 77-233); experiment: SPR (BIAcore), against apo human TNFα
T2 construct: also called human TNFα +compound (2); compound-distorted human TNFα
T2 sequence (P01375 77-233 limits assumed, one chain of several): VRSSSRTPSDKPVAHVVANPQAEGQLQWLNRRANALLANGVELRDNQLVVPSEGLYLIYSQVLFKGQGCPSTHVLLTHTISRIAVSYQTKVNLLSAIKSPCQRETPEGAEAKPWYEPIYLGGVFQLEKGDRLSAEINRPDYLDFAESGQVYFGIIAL

T1 sequence (P01375 77-233 limits assumed, one chain of several): as above

selective binding for compound-distorted over apo human TNFα (log) [1]: > 2 log | selective binding for compound-distorted over apo human TNFα (log) [2]: > 2 log
B1: CA185_01979 mouse IgG1 (antibody, V domains shown)
VH: EVHLVESGPGLVKPSQSLSLTCSVTGYSITNSYWDWIRKFPGNKMEWMGYINYSGSTGYNPSLKSRISISRDTSNNQFFLQLNSITTEDTATYYCARGTYGYNAYHFDYWGRGVMVTVSS
VL: DIQMTQSPASLSASLEEIVTITCQASQDIGNWLSWYQQKPGKSPHLLIYGTTSLADGVPSRFSGSRSGTQYSLKISGLQVADIGIYVCLQAYSTPFTFGSGTKLEIKR
notes: mIgG1 heavy chain and kappa light chain; also called CA185_01979.0; VR0001842
